Assay: yeast display, Sf9 membrane polyspecificity reagent, FACS + sequencing; frameworks hold sequencing errors
Summary of the method: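 Nanobodies came from a synthetic yeast display library in Saccharomyces cerevisiae BJ5465, induced with galactose for 36–48 hours and stained for 1 hour at 4 °C with 10% biotinylated, detergent-solubilized Sf9 membrane reagent. Cells were enriched on streptavidin microbeads and then FACS-sorted, with low and high (top ~1%) gates set on anti-HA fluorescence for expression and streptavidin fluorescence for reagent binding. Each polyreactivity label reflects the gate a clone came from. Genes were amplified by colony PCR, sequenced by MiSeq 2 × 250 and filtered by CDR length.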

Row | Sequence | polyreactivity (PSR sort gate)
1 | QVQLVESGGGLVQAGGSLRLSCAASGSIFALYAMGWYRQAAGKERELVAAITKGGGSTYYADSVKGRFTISRDNAKNTVYLQMNSLKPEDTAVYYCAARGRYSAPDYGYWGQGTQVTVSS | high polyreactivity
2 | QVQLVESGGGLVQAGGSLRLSCAASGSTFHFYAMGWYRQAPGKERELVASITSRGGNTHYADSVKGRFTISRDNAKNTVYLQMNRLKPEDTAVYYCAARGGWYGTYDYLGQGTQVTVSS | low polyreactivity
3 | QVHLVESGGGLVQAGGSLRLSCAASGFTFGWNAMGWYRQAPGKERELVASINSGGSTYNADSVKGRFTISRDNAKNTVYLEMNFLKPEDTAVYYCATAPYVTSRRYGPYEYWGQGSQVTVSS | low polyreactivity
4 | QVQLVESGGGLVQAGCSLRLSCAASGRIFDNYVMGWYRQAPGQERELVAAISSGGGTYYADSVTGRFTISRDNAKNTVYLQMNSLKPEDTAVYYCAKRRVYDRSFGRYDYWGQGTQVTVSS | low polyreactivity
5 | QVQLVESGGGLVQAGGSLRLSCAASGFTFVSYAMGWYRQAPGKERELVAAISRSGGTTYYADSVKGRFTISRDNAKNTGYFQMNSLKPEDTAVYYCAADFYVFYTRYYYWGQGTQVTVSS | low polyreactivity
6 | QVQLVESGGGLVQAGGSLRLSCAASGNTFGRYAMGWYRQAPGKERELVAAITKRGGTTYYADSVKGRFTISRDYAKNTVYLQMNSLKPEDTAVYDCAAKRSVLRTADYDYWGQGTQVTVSS | high polyreactivity
7 | QVQLVESGGGLVQAGGSLRLSCAASGLTFTTYAMGWYRQAPWKERELVAAISRSGGRTYYADSVKGRFTISRDNAKNTVYLHMNSLKPEDTAVYYCNVKGHVLEYYWGQGTQVTVSS | high polyreactivity
8 | QVQLVESGGGLVQAGGSLRLSCAASGFIFDRYAMGWYRQAPGKERELVAAISSGGSTYYADSVKGRFTISRDNAKNTVYLQMNSLKPEDTAVYYCAAESWLNFIYEYDYWGQGTQVTVSS | low polyreactivity
9 | QVQLVESGGGLVQAGGSLRLSCAASGSTFSPYAMGWYRQAPGKERELVAAITRSGSSTYYADSVKGRFTISRDNAKNTVYLQMNSLKPEDTAVYYCAADTGVTRSYRYTSWRIKYESWGQGTQVTVSS | low polyreactivity
10 | QVQLVESGGGLVQAGGSLRLSCAASGRIFDGNAMGWYRKAPGKERELVATITRGGRTNYADSVKGRFTISRDNAKNTVYLQMNSLKPEDTAVYYCNAPIYGRYYDLDYWGQGTQVTVSS | low polyreactivity
11 | QVQLVESGGGLVQAGGSLRLSCAASGFIFYRYAMGWYRQEPGKERELVASINYSGGRTYYADSVKGRFTISRDNAKNTVYLQMNSLKPEDTAVYYCNARYKSTYYYWGQGTQVTVSS | high polyreactivity
12 | QVQLEESGGGLVQAGGSLRLSCAASGNIFESYGMGWYRQAPGKERELVATINTSSGSTYYADSVKGRFTISRDNAKNTVYLQMNSLKPEDTAVYYCAAEWYPYPWGYGYWGQGTQVTVSS | low polyreactivity
13 | QVQLVESGGGLVQAGGSLRLSCAASGYIFLYNAMGWYRQAPGKERELVAAIRAIGGRTYYADSVKGRFTISRDNAKNTVYLQMNSLKPEDTAVYYCNARGQRRRSTGLRYIYDYWGQGTQVTVSS | high polyreactivity
14 | QVQLVESGGGLVQAGGSLRLSCAASGRTFYFNAMGWYRQAPGKERELVAGISGDGSTNYADSVKGRFTISRDNAKNTFYLQMNSLKPEDTAVYYCAKTMGSQSYDFDYWGQGTQVTVSS | low polyreactivity
15 | QVQLVESGGGLVQAGGSLRLSCAASVSIFGVKVMGWYRQAPGKERELVAAIDVSDTSTYYADSVKGRFTISRDNAKNTVYLQMNSLKAEDTAVYYCAARRTRYPFQFDYWGQGTQVTVSS | low polyreactivity
16 | QGQLVESGGGLVQAGGSLRLSCAASGLIFYPNGMGWYREAPGKERELVAAITYSDGSTYYADSVKGRFTISRDNAKNTVYLQMNSLKAEDTAVYYCNRVTRWTYNYWGQGTQVTVSS | high polyreactivity
17 | QVQLVESGGGLVQAGGSLRLSCAASGSTFKNNAMGWYRQEPGKEREFVASISKRGGSTYYADSVKGRFTISRDNAKNTVYLQMNSLKPEDTAVDYCAKTYWSYGWSHGDYGEFDYWGQGTQVTVSS | high polyreactivity
18 | QVQLVESGGGLVQAGGSLRLSCAASGRIFSSNAMGWYRQAPGTERELVASLSSTGSPKYADSVKGRFTISRDNAKNTVYLQMNSLIPEDTAVYYCAATQVRRGPAWGRDYWGQGTQVTVSS | low polyreactivity
19 | QVQLVESGGGLVQAGGSLRLICAASGFIFDPYAMGSYRQATGKVRELVAAISSGGSTYYADSVKGRFTISRDNAKNTVYLQMNSLKPEDNAVYYCAKVYVRYDSSTQTYLNTYGYWGQGTQVTVSS | high polyreactivity
20 | QVQLVESGGGLVQAGGSLRLSCAASGIIFRYYTMGWYRQAPGKEREFVAAITGSSGSTYADSVKGRFTISRDNAKNTVYLQMNSLKPEDTAVYYCNADSYSIWVYGEYDYWGQGTQVTVSS | high polyreactivity
21 | QVQLVESRGGLVQAGGSLRISCAASGSTFVAYAMGWYRQAPAKERELVAAISYSGGSTYYADSVKGRFTISRDYAKNTVSLQMNCLKPEDTAVYYCAAEWSRHYYYGPRYDYWGQGTQVSVSS | low polyreactivity
22 | QVQLVESGGGLVQAGGSLRLSCAASGRIFGRYAMGWYRQAPGKERELVAAIPRNGGSTYADSVNGRFTISRDNAKNTVYLQMNILKPEDTAVYYCAKKRGGKKSGPHDYWGQGTQVTVSS | high polyreactivity

Row | Sequence | polyreactivity (PSR sort gate)
23 | QVQLVESGGGLVQAGGSLRLSCAASGFTLGPYMGWYRQAPGKERELVAAISGGGGRTYYADSVKGRFTISRDNAKNTVYLQMNSLKPEDTSVYYCAAAYRSYKQFYSYGYEYWGQGTQVTVSS | high polyreactivity
24 | QVQLVESGGGLVQAGGSLRLSCAASGFTFSYYGMGWNIQAPRKERELVPALTRSGTNTYYADSVKGRFTISRDNAKNTVYLQMKSLKPEDTAVFYCNADVAWSGYHDWYWSSEDYWGQGTQVTVSS | low polyreactivity
25 | QVQLVESGGGLVLAGGSLRLSCAASGRIFLRNAMGWYRQAPGKVRELVATITSRGGSTYYADSVKGRFTISRDKAKNTVYLQMNSLKPEDTAVYYCAADPRRYRGFGYVYGGFYYWGQGTQVTVSS | low polyreactivity
26 | QVQLVESGGGLVQAGGSLRLSCAASGSILDLNAMGWYRQAPGKERELVAAISYSGDSTYYADSVKGRFTISRDNAKNTVYLQMNSLKPEDTAVYYCAAEVYGAVFDYWGQGTQVTVSS | low polyreactivity
27 | QVQLVESGGGLVQAGGSLRLSCAASGITFYVYAMGWYIPAPGKERELVAAINYDSGSTYYADSVKGRFTISRDNAKNTVYLQMNSLKPEDTAVYYCATDGVNPFYAYDYWGQGTQVTVSS | low polyreactivity
28 | QFQLVESGGGLVQAGGSLRLSCAASGYTFGNYAMGWYRPAPGNVRVLVAGISWSGGSTYYADSVKGRFTISRDNAKNTVYLQMNSLKPEDTAVYYCATRVQGYHNGWYAYLGQGTQVTVSS | high polyreactivity
29 | QVQLVESGGGLVQAGGTLRLSCAPSGSIFGDYVMGWYRQAPGKEWELVAAINRGGSTYYADSVKGRFTISRDNAKNTVYLQMKSLKPEDTAVYYCAAGYPSWYYGYPYDSWGQGTQVTVSS | low polyreactivity
30 | QVKLVESGGGLVQAGGSLRLSCAASGIIFYDYAMGWYRQAPGKERELVAAISSGGDTYYADSVKGRFTISRDNAKNTVYLQMNSLKPEVTAVYYCAAYPPFIYSDPSIWYDYWGQGSQVTVSS | low polyreactivity
31 | QVQLVESAGGLVQAGGSLRLSCAASGITFEVYAMGWYRQAPGKERELVAAITGSGSRTYYADSVKGRFTISRDNAKNTVYLQMNSLKPEDTAVYYCAVKGFSTRSYREFDYWGQGSQVTVSS | low polyreactivity
32 | QVQLQESGGGLVQAGGSLRLSCAASGNIYDADIMGWYRQAPGKERELVTSITDGGSTNYADSVKGRFTISRDNAKNTVYLQMNSLKPEDTAVYYSAAIAYADIPTSFDYNSDYSYWGQGTQVTVSS | low polyreactivity
33 | QVQLVESGGGLVQAVGSLRLSCADSGTFPYYAMGRYRQAPWKERELVAAITRSGTRTYYADSVKGRFTISRDNAKNTGYLQMKSLKPEDTAVYYCAARQTGFSSQFRGYYSWGQGTQVTVSS | high polyreactivity
34 | QVQLVESGRGLVQAGGSLRLSCAASGFTFRTYAMGWYRQSPGKERELDAAITRNGGTYYADSVKGRFTISRDNAKITVYLPMNSLKPEDTARYYCATDPAYWGDLPPEDDYWGQGTQVTVSS | low polyreactivity
35 | QVQLVESGGGLVQVGGSLRLSCAASGRTFYRYAMGWYRQAPGKERELVATINWTSGSTYYADSVKGRFTISRDKAKNTVYLQMNSLKPEDTAVYYCATVPHGKDTFGYWGQGTQVTVSS | high polyreactivity
36 | QVQLVDSGGVLVQAGGSLRLSCAASGGTFRTYAMGWYRQAPGKERELVAAITWRGGSTYYADSVKGRFTISRDNAKNTVYLQMNSLKPEDTAVYNCAARVAYQWSFYKYDYWGQGTQVTVSS | high polyreactivity
37 | QVQLVESGGGVGQAGGSLRLSCAASGSNFKYYAMGWYRPAPGKERELVAVITSGGSTYYADSVKGRFTISRDNAKNTVYLQMNSLKPEDTAVYDCAAGVRAYNWGEYDYWGQGTQVTVSS | low polyreactivity
38 | QVQLVESGGGLVHAGGSLRLSCAASGSIFAGNAMGWYRQAPGNERELVAGISRSGGSTNYADSVKGRFTISRDNAKNTVYLQMIRLKPEDTAVYYFAASATPSGVGMDYWGQGTQVNVSS | low polyreactivity
39 | QVQLVESGGGLVQAGGSLRLSRAASGRTFYGYAMGWYRQAPGKESELVARIRSGGSTNYADSVKGRFTISRDNAKNTVYLLMNSLIPEDTAVFYCAARPGAAGYKYYYWGQGTQVTVSS | high polyreactivity
40 | QVQLVESGGGLVQAGGSLRLSCAASGLTFYYYAMGWYRQAPGKERELVATISGSGGNTYYADSVKGRFTISRDNAKNTVYLQMNSLKPEDTAVYYCNARYRWWLYYSRDRVYCWGQGTQVTVSS | high polyreactivity
41 | QVQLVESGGGLVQAGGSLRLSCAASGGTFQSNAMGWYRQAPGKERELVASITSRGSSTYYADSVKGRFTISRDNAKNTFYLLMNSLKPEDTAVYYCAKGSSWQIYYKGGIKGGYWGQGTQVTVSS | low polyreactivity
42 | QVQLVESGGGLVQAGGSLRLSCAASGLTFAVYAMGWYRQAPGKERELVASITRSGGSTYYADSVKGRFTISRDNAKNTVYLQMNSLKPEDTAVYYCAAQTIYSGRYYYYSRYDYWGQGTQVTVSS | high polyreactivity
43 | QVQIEESRGGLVQAGGSLRLSCAASGRTFYYYAMGWYRQAPGKERELVAAISYRGGSTYYADSVKGRFTISRDNAKNTVFLQLNSLKPEDTAVYYCAKYPHPLKYPGYPSEFDYWGQGTQVSVSS | low polyreactivity

Source: the nanobody polyreactivity screen of Harvey et al. (2022)
